Tests used:
[1] = biological target: T1, recombinant Plasmodium falciparum circumsporozoite protein (CSP) (Plasmodium falciparum, UniProt Q7K740 21-375); experiment: binding affinity column of the in vivo table (SPR, CSP)
T1 construct: also called recombinant CSP

[2] = biological target: T1, recombinant Plasmodium falciparum …; experiment: SPR, recombinant CSP

T1 sequence (Q7K740 21-375 limits assumed): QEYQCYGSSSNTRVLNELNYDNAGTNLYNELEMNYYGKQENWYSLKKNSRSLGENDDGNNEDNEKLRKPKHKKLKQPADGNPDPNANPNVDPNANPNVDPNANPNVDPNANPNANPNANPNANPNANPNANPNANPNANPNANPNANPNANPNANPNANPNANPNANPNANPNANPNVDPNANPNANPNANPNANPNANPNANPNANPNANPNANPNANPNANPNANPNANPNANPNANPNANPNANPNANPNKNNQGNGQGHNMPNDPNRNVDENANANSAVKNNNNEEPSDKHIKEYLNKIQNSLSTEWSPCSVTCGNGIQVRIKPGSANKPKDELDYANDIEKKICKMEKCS

Binder | Kd [1] | Kd [2] | koff [2] | kon [2]
AB001455 (antibody, V domains shown) VH: QVQLVESGGGVVQPGRSLRLSCAASGFTFSNYGMHWVRQAPGKGLEWVAIIWYDGSSKYYADSVRGRFTISRDNSKNTLFLQMNSLRAEDTAVYYCARDDYYSSAYNHLGYWGQGTLVTVSS VL: not shown | 1.37 nM | 1.37 nM | 0.000831 s⁻¹ | 608000 M⁻¹ s⁻¹
AB-000394 (antibody, V domains shown) VH: QAQPVESGGGVVQPGKSLRLSCAASGFTFRNFGMHWVRQAPGKGLEWVAVIWHDGSNQFYADSVEGRFTISRDNSKNTLYLQMDSLRVEDTAMYYCARDRGYSGSWGYFDHWGQGTLVTVSS VL: EIVLTQSPATLSLSPGERATLSCRASQSISDYLAWYQQKPGQAPRLLIYDASFRATGIPARFSGSGSGTDFTLTISSLEPEDFAVYYCQQRSIGFTFGPGTKVDIK | 0.105 nM | 0.105 nM | 0.00156 s⁻¹ | 1.48e+07 M⁻¹ s⁻¹
AB-001545 (antibody, V domains shown) VH: QVQLVESGGGVVQPGRSLRLSCAASGFTFSSYGMHWVRQAPGKGLEWVAVIWYDGSNKYYADSVKGRFTISRDNSKNTLYLQMNSLRAEDTAVYYCARDLDYSNHNWFDPWGQGTLVTVSS VL: EIVLTQSPATLSLSPGERATLSCRASQSVSSYLAWYQQKPGQAPRLLIYDASNRATGIPARFSGSGSGTDFTLTISSLEPEDFAVYYCQQRSNWFTFGQGTRLEIK | – | 4.96 nM | 0.000442 s⁻¹ | 89000 M⁻¹ s⁻¹
AB-000338 LS (antibody, V domains shown) VH: QVQLVESGGGVVQPGRSLRLSCAASGFSFSTYGMHWIRQVPGKGLEWVAIIWHDGSKEFYADSVKGRFTISRDNSKKKLYLQMNSLRAEDTAIYYCVKDDFDSSGHSYFHYWGQGTLVTVSS VL: GVVMTQSPLSLPVTLGQPASISCRSSQSLVHSDGNTYVHWFQQRPGQSPRRLIYKVSNRDSGVPDRFSGSGSGTDFTLKISRVEAEDVGVYYCMQGTQWWTFGQGTKVEIK | 0.13 nM | 0.13 nM | 0.00147 s⁻¹ | 1.13e+07 M⁻¹ s⁻¹
AB001533 (antibody, V domains shown) VH: QVQLVESGGGVVQPGRSLRLSCAASGFTFNSYGMHWVRQAPGKGLEWVALISFDGTNKFYADSVKGRFTISRDNSKNTLYLQMNSLRAEDTALYHCATDSLFYYDFHLFDYWGQGTLVTVSS VL: DIVLTQTPLSSPVTLGQPASISCRSSQSLVYSDGNTYLNWLQQRPGQPPRLLIYKISNRFSGVPDRFSGSGAGTDFTLKISRVEAEDVGVYYCMQATQLYTFGQGTKLEIK | 0.248 nM | 0.248 nM | 0.000669 s⁻¹ | 2.69e+06 M⁻¹ s⁻¹
AB-000373 (antibody, V domains shown) VH: QVLLVESGGGVVQPGGSLRLSCTASGFTFKNYGMHWVRQAPGKGLEWVAVIWFDGSNEFYADSVEGRFTISRDNSKNTLYLQTNSLRAEDTAVYYCARSYTSSWLGFDFWGQGTLVTVSS VL: DAVMTQTPLSLSVTPGQPASISCKSGQSLLHSDGKTYLYWYLQKPGQSPQLLIYEVSSRFSGVPDRFSGSGSGTDFTLKISRVEAEDVGVYYCMRGIHPRTFGQGTKVEIK | 0.0592 nM | 0.0592 nM | 0.00152 s⁻¹ | 2.58e+07 M⁻¹ s⁻¹
AB001578 (antibody, V domains shown) VH: QVQLVESGGGVVQPGRSLRLSCAASGFSFSNYGMHWVRQAPGKGLEWVAIIWYDGSNKYYADSVKGRFTISRDNSKNTLYLQMNSLRAEDTAVYYCARDGTIWDDSRGYILDYWGQGTLVTVSS VL: EIVLTQSPATLSLSPGERATLSCRASQGVSSYLAWYQQKPGQAPRLLIYDASNRATGIPARFSGSGSGTDFTLTISSLEPEDFAVYYCQQRSNWPPTFGPGTKVDIK | – | 2.64 nM | 0.000977 s⁻¹ | 369000 M⁻¹ s⁻¹
AB001458 (antibody, V domains shown) VH: EVQLVESGGGLVQPGRSLRLSCTASGFTFGDYAMSWFRQAPGKGLEWVSFIRSKTYGGSTEYAASVKGRFTISRDDSKSIAYLQMHSLKTEDTAFYYCTRVSAAAGVGDYWGQGTLVTVSS VL: EIVMTQSPATLSVSPGERATLSCRASQSVGSNLAWYQQKPGQAPRLLIYGASTRATGLPARFSGSGSATEFTLTISSLQSEDFAVYYCQQYNTWWTFGQGTKVEIK | 0.921 nM | 0.921 nM | 0.00171 s⁻¹ | 1.86e+06 M⁻¹ s⁻¹
AB-000325 (antibody, V domains shown) VH: QVQLVESGGGVVQPGRSLRLSCAASRFPFKNYGMHWVRQAPGKGLEWVALIWFDGSNKFYVDSVEGRFTISRDNSNNMLYLEMNSLRADDTAVYYCARAGRYDDSGYLDYWGQGTLVTVSS VL: EIVMTQSPATLSVSPGERATLSCRASQSVGSKLAWYQHKPGQAPRLLIYGASTRATGIPARFSGSGSGTEFTLTVSSLQSEDFAVYYCQQYNHWYTFGQGTKLEIK | – | 0.0529 nM | 0.00215 s⁻¹ | 4.07e+07 M⁻¹ s⁻¹
AB001558 (antibody, V domains shown) VH: QVQLVESGGGVVQPGRSLRLSCAASGFTFSSYGMHWVRQAPGKGLEWVAVIWYDGNNKYYVDSVKGRFTISRDNSKNTLYLQMNSLRAEDTAVYYCARDHDADYVEKWGAFDLWGQGTMVTVSS VL: EIVMTQSPATLSVSPGERATLSCRASQSVSSNLAWYQQKPGQAPRLLIYGASARATGIPARFSGSGSGTEFTLTISSLQSEDFAVYYCQQYNNGRTFGQGTKVEIT | – | 40.2 nM | 0.000797 s⁻¹ | 19800 M⁻¹ s⁻¹
AB001472 (antibody, V domains shown) VH: QVQLVESGGGVVQPGRSLRLSCAASGFTFSSYGMHWVRQAPGKGLEWVAVIWYDGSNKYYADSVKGRFTISRDNSQNTLFLQMNSLRAEDTAVYYCARVGEYSSSPDWGAAFDIWGQGTMVTVSS VL: not shown | 2.11 nM | 2.11 nM | 0.000518 s⁻¹ | 246000 M⁻¹ s⁻¹
AB001554 (antibody, V domains shown) VH: QVQLVESGGGVVQPGRSLRLSCAASGFTFSSYGMHWVRQAPGKGLEWVAVIWYDGSNKYHADSVKGRFTISRDNSKNTLYLQMNNLRSEDTAVYYCAKDETLWFGELSDGFDIWGQGTMVTVSS VL: not shown | – | 2.29 nM | 0.000716 s⁻¹ | 313000 M⁻¹ s⁻¹
AB-000231 (antibody, V domains shown) VH: QVHLVESGGGVVQPGRSLRLSCAASGFTFRNYGIHWVRQAPGKGLEWVAVIWYDGSREFYADSVEGRFTVSRDNSKNTVFLQMNSLRVDDTAVYYCARAGYSDTSGYGDHWGQGTLVSVSS VL: QSVLTQPPSVSGAPGQRVTISCTGGSSNIGAGYDVHWYQQLPGTAPKLLISHNNNRPSGVPDRFSGSKSGTSASLVIAGLQAEDEADYYCQSYDRRLSSSWVFGGGTRLTVLS | – | 0.328 nM | 0.00142 s⁻¹ | 4.34e+06 M⁻¹ s⁻¹
AB001511 (antibody, V domains shown) VH: QVQLVESGGGVVQPGRSLRLSCAASGFTFSSYGMHWVRQAPGKGLEWVAIIWYDGSNKYYADSVKGRFTISRDNSKNTLYLQMNSLRAEDTAVYYCARDTDDYYDAHTMDVWGQGTTVTVSS VL: not shown | – | 2.03 nM | 0.000525 s⁻¹ | 259000 M⁻¹ s⁻¹
AB-000391 (antibody, V domains shown) VH: EVQLVQSGGGLVQPGGSLRLSCVASGFTLSSYEMNWVRQAPGKGLEWVSFISSSGSKKRYADSVKGRFTVSRDNAKNSLSLQMNSLRAEDTAVYYCARDHSTSDREYGLDVWGQGATVTVSS VL: DVVMTQSPLSLPVTLGQPASISCRSGQSLLYSDGNTYLYWFQQRPGQSPRRLIYKVSNRDPGVPERFSGSGSGTDFTLKISRVEAEDVGIYFCLQGTHWPYTFGRGTKLEIK | – | 0.616 nM | 0.000535 s⁻¹ | 869000 M⁻¹ s⁻¹
AB-000327 (antibody, V domains shown) VH: QVQLVESGGGVVQPGRSLRLSCAASRFTFKNYGMHWVRQGPGKGLEWVAVIWYDGSQEYYVDSVRGRFTISRDNSKDTLYLQMNSLRAEDTAVYYCVRDGRYRTSHQTSTGFFDLWGQGTLVTVSS VL: QSMLTQPPSVSGAPGQRVTISCTGSSSNIGADYDVHWYQQLPGTAPKLLIYGNNNRPSGVPDRFSGSKSGTSASLAITGLQPEDEAEYYCQSYDSSLSGSFVFGTGTKVTVL | 0.467 nM | 0.467 nM | 0.00143 s⁻¹ | 3.06e+06 M⁻¹ s⁻¹
AB-000376 (antibody, V domains shown) VH: QVQLVESGGGVVQPGRSLRLSCTASGFTFSNYGMHWVRQAPGRALEWVAIIWHDGSNKYYADSVKGRFTISRDNSKNTLYLQMNNVRVEDTAVYHCAKVGGFGELYEAFDFWGQGTLVTVSS VL: DIQMTQSPSTLSASVGDRVTITCRASHSISNWLAWYQQKPGKAPRLLIYKASSLNSGVPSRFSGSASGTEFTLTISSLQPDDFATYFCQQYNAYWTFGQGTKVEIK | – | 0.201 nM | 0.000866 s⁻¹ | 4.31e+06 M⁻¹ s⁻¹
AB001396 (antibody, V domains shown) VH: QVQLVESGGGVVQPGRSLRLSCAASGFTFSSYGMHWVRQAPGKGLEWVAIIWYDGSHKYYADSVKGRFTISRDNSKNTLYLQMNSLRAEDTAVYHCARVYQPTYYYDSSRGEAFDIWGQGTMVTVSS VL: DIQMTQSPSTLSASVGDRVTITCRASQSISSWLAWYQQKPGKAPKLLIYKASNLGSGVPSRFSGSGSGTEFTLTISSLQPDDFATYYCQQYNSYWTFGQGTKVEIK | – | 1.47 nM | 0.000393 s⁻¹ | 268000 M⁻¹ s⁻¹
AB001428 (antibody, V domains shown) VH: QVQLVESGGGVVQPGRSLRLSCVVSGFTFSSYGMHWVRQAPGKGLEWVAIIWYDGSKKYYADSVKGRFTISRDNSKNTLYLQMNSLRAEDTAVYYCARPGDSSGSHGEAFDIWGQGTMVTVSS VL: DIQMTQSPSTLSASVGDRVTITCRPSQSISNWLAWYQQKPGKAPKLLIYKASSLESGVPSRFSGSGSGTEFTLTISGLQPDDFATYYCQQYNTYWTFGQGTKVEIK | 1.18 nM | 1.18 nM | 0.00101 s⁻¹ | 855000 M⁻¹ s⁻¹
AB001529 (antibody, V domains shown) VH: QVQLVESGGGVVQPGRSLRLSCVASGFSFRSYGMHWVRQAPGKGLEWVAIIWYDGSNKYYAHSVKGRFTISRDNSKNTLYLQMNSLRAEDTAIYYCAKDGGTETTWGNAFDIWGQGTMVTVSS VL: DIQMTQSPSTLSASVGDRVTITCRASQSISSWLAWYQQKPGKAPKLLIYKASSLESGVPSRFSGSGSGTEFTLTINNLQPDDFATYYCQQYNSYWTFGQGTKVEIK | – | 1.64 nM | 0.00108 s⁻¹ | 660000 M⁻¹ s⁻¹
